# Laboratory results: paper PMC9636267 (2022)
# Substitutions are numbered along the chain they refer to.
# T1: HCoV-NL63 S ectodomain (16–1291 aa) (human coronavirus NL63, UniProt Q6Q1S2 16-1291)
# T1 chain: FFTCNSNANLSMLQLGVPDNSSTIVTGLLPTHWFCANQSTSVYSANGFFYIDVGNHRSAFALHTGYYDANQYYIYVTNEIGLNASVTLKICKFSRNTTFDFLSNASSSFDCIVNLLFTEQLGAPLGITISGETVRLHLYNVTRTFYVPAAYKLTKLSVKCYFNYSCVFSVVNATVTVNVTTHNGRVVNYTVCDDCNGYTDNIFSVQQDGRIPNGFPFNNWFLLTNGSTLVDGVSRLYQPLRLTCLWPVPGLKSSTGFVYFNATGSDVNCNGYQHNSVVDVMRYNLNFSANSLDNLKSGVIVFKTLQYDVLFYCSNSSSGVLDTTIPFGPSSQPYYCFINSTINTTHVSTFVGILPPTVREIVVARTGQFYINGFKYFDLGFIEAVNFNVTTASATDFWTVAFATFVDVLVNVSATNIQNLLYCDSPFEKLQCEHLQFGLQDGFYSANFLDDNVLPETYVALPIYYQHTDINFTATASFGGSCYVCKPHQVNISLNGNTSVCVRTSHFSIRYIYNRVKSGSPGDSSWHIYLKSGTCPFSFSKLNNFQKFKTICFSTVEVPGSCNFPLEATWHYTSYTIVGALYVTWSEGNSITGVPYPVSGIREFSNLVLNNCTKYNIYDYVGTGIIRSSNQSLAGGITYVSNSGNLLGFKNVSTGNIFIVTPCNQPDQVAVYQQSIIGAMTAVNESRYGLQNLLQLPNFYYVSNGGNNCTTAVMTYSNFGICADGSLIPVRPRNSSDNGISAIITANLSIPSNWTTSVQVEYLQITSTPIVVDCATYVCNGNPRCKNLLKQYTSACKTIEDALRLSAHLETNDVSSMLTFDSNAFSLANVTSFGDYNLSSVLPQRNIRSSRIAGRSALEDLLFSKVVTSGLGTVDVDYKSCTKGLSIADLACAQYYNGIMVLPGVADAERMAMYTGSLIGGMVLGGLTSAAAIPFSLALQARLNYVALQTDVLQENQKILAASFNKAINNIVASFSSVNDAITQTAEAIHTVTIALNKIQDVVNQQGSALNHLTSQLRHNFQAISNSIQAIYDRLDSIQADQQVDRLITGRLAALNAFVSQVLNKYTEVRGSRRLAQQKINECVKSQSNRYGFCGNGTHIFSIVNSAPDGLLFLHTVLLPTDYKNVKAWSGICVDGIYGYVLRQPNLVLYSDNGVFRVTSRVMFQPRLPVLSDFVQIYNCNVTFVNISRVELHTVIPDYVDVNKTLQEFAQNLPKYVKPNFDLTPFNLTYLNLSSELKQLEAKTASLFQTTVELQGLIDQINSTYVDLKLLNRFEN
# T2: HCoV-229E S1 subunit (17–560 aa) (human coronavirus 229E, UniProt P15423 17-560)
# T2 chain: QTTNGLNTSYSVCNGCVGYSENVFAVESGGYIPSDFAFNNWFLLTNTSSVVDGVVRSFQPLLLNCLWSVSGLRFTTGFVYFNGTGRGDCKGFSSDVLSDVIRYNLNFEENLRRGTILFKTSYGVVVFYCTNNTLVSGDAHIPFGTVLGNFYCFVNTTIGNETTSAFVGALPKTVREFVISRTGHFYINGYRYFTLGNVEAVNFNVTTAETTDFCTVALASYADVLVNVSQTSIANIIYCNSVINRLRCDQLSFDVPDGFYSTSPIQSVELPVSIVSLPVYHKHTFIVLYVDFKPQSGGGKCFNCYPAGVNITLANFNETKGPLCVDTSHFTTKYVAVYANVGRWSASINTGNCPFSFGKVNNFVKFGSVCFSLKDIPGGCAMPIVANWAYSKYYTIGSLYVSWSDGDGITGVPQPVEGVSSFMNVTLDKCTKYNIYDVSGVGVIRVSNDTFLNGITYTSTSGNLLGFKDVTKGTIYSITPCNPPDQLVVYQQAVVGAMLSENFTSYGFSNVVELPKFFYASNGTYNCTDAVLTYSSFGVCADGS
# T3: HCoV-229E NTD (17–265 aa) (human coronavirus 229E, UniProt P15423 17-265)
# T3 chain: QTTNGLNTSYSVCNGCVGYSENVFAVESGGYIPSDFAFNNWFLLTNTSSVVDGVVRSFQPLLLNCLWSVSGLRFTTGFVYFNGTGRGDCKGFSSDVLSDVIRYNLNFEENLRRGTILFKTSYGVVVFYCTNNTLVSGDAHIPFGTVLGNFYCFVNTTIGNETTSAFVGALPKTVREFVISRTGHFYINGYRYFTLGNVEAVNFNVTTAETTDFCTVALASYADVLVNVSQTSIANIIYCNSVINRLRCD
# T4: HCoV-229E S ectodomain (17–1115 aa), 229E S trimer (human coronavirus 229E, UniProt P15423 17-1115)
# T4 chain: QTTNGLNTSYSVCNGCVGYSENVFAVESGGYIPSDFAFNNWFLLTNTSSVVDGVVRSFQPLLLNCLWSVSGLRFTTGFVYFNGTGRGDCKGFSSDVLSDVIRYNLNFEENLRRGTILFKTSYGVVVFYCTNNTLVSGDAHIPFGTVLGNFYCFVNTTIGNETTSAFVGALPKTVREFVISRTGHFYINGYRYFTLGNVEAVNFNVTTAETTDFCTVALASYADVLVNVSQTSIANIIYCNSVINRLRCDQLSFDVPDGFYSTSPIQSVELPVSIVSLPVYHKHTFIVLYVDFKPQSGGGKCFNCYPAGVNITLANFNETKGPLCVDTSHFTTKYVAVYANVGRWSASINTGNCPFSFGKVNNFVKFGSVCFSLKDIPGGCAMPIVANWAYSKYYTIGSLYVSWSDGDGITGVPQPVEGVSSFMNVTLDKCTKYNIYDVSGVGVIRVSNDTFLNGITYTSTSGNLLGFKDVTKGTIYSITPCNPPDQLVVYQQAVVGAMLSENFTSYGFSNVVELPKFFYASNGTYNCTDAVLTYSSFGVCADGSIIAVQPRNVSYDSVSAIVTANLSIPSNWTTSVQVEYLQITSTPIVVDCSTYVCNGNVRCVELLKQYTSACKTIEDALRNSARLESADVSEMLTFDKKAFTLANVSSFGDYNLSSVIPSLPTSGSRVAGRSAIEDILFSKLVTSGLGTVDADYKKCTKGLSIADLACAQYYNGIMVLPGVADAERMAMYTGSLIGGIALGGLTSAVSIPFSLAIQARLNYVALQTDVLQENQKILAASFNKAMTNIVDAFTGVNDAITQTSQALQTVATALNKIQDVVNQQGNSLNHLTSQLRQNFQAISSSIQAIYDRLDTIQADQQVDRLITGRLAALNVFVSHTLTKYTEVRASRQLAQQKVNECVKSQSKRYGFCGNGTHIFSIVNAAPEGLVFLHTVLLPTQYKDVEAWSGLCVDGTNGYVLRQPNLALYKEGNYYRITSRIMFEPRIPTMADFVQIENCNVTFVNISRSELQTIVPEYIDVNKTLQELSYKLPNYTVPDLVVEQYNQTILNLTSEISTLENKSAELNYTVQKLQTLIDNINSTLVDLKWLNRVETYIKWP
# B1: Fab D12 (Fab, V domains shown)
# VH: EVQLVESGGGLVQPGGSLRLSCAASGFNLSSYSMHWVRQAPGKGLEWVAYISPYYSYTSYADSVKGRFTISADTSKNTAYLQMNSLRAEDTAVYYCARVWYHSYPGWVPWGSWAFDYWGQGTLVTVSS
# VL: DIQMTQSPSSLSASVGDRVTITCRASQSVSSAVAWYQQKPGKAPKLLIYSASSLYSGVPSRFSGSRSGTDFTLTISSLQPEDFATYYCQQAYYSPITFGQGTKVEIK
# B2: Fab A10 (Fab, V domains shown)
# VH: EVQLVESGGGLVQPGGSLRLSCAASGFNISSYYMHWVRQAPGKGLEWVAYISPYSGYTYYADSVKGRFTISADTSKNTAYLQMNSLRAEDTAVYYCARAHYPYHGSYWGLDYWGQGTLVTVSS
# VL: B1 VL with Y92G, S94V
# B3: Fab A11 (Fab, V domains shown)
# VH: EVQLVESGGGLVQPGGSLRLSCAASGFNIYSSYIHWVRQAPGKGLEWVASISSSYGYTYYADSVKGRFTISADTSKNTAYLQMNSLRAEDTAVYYCARGHGWAYVWSSYYPAGAFALDYWGQGTLVTVSS
# VL: DIQMTQSPSSLSASVGDRVTITCRASQSVSSAVAWYQQKPGKAPKLLIYSASSLYSGVPSRFSGSRSGTDFTLTISSLQPEDFATYYCQQSYALITFGQGTKVEIK
# B4: Fab B09 (Fab, V domains shown)
# VH: EVQLVESGGGLVQPGGSLRLSCAASGFNLSYSSIHWVRQAPGKGLEWVAYIYPYYGSTYYADSVKGRFTISADTSKNTAYLQMNSLRAEDTAVYYCARSWSPSSSYPGYGGLDYWGQGTLVTVSS
# VL: DIQMTQSPSSLSASVGDRVTITCRASQSVSSAVAWYQQKPGKAPKLLIYSASSLYSGVPSRFSGSRSGTDFTLTISSLQPEDFATYYCQQSWSYYGSLFTFGQGTKVEIK
# B5: Fab A01 (Fab, V domains shown)
# VH: EVQLVESGGGLVQPGGSLRLSCAASGFNISSSYIHWVRQAPGKGLEWVASIYSYYSSTSYADSVKGRFTISADTSKNTAYLQMNSLRAEDTAVYYCARGGYAFYGYGSPHSWYALDYWGQGTLVTVSS
# VL: B4 VL with S91W, S93P, Y94G, Y95S, G96W, S97G, L98P, F99I
# B6: Fab B10 (Fab, V domains shown)
# VH: EVQLVESGGGLVQPGGSLRLSCAASGFNLSSSSMHWVRQAPGKGLEWVAYIYPSYSSTYYADSVKGRFTISADTSKNTAYLQMNSLRAEDTAVYYCARASGHFWAYGFDYWGQGTLVTVSS
# VL: DIQMTQSPSSLSASVGDRVTITCRASQSVSSAVAWYQQKPGKAPKLLIYSASSLYSGVPSRFSGSRSGTDFTLTISSLQPEDFATYYCQQYSYSGPFTFGQGTKVEIK
# B7: Fab D04 (Fab, V domains shown)
# VH: EVQLVESGGGLVQPGGSLRLSCAASGFNLSSYYIHWVRQAPGKGLEWVASISPYSSSTYYADSVKGRFTISADTSKNTAYLQMNSLRAEDTAVYYCARWYSPSYGWYWPYASGAGGLDYWGQGTLVTVSS
# VL: B6 VL with Y91S, Y93P, S94H, G95Y, P96L, F97I
# Molecular target: T1, HCoV-NL63 S ectodomain (16–1291 aa)
# Assay: SPR
row,Binder,Kd
1,B1,8400 nM

# Molecular target: T1, HCoV-NL63 S ectodomain (16–1291 aa)
# Assay: SPR
# Remark: another data set of the same source
row,Binder,Kd
1,B1,3800 nM

# Molecular target: T2, HCoV-229E S1 subunit (17–560 aa)
# Assay: SPR
row,Binder,koff
1,B1,0.00086 s⁻¹
2,B2,0.00083 s⁻¹
3,B3,0.0018 s⁻¹
4,B4,0.00064 s⁻¹
5,B5,0.00068 s⁻¹
6,B6,0.00031 s⁻¹
7,B7,0.0012 s⁻¹

# Molecular target: T3, HCoV-229E NTD (17–265 aa)
# Assay: SPR
row,Binder,koff
1,B1,0.00043 s⁻¹
2,B2,0.0015 s⁻¹
3,B3,0.004 s⁻¹
4,B4,0.00037 s⁻¹
5,B5,0.00076 s⁻¹
6,B6,0.00069 s⁻¹
7,B7,0.0026 s⁻¹

# Molecular target: T2, HCoV-229E S1 subunit (17–560 aa)
# Assay: SPR
# Remark: another data set of the same source
row,Binder,Kd
1,B1,1.1 nM
2,B2,3.6 nM
3,B3,3.2 nM
4,B4,32 nM
5,B5,17 nM
6,B6,2.3 nM
7,B7,2 nM

# Molecular target: T3, HCoV-229E NTD (17–265 aa)
# Assay: SPR
# Remark: another data set of the same source
row,Binder,Kd
1,B1,3.2 nM
2,B2,4.6 nM
3,B3,8.8 nM
4,B4,235 nM
5,B5,31 nM
6,B6,5.5 nM
7,B7,7.7 nM

# Molecular target: T4, HCoV-229E S ectodomain (17–1115 aa), …
# Assay: SPR
row,Binder,Kd
1,B1,3.9 nM
2,B2,6.3 nM
3,B3,9.4 nM
4,B4,33 nM
5,B5,32 nM
6,B6,2.5 nM
7,B7,2 nM

# Molecular target: T4, HCoV-229E S ectodomain (17–1115 aa), …
# Assay: SPR
# Remark: another data set of the same source
row,Binder,koff
1,B1,0.0018 s⁻¹
2,B2,0.00021 s⁻¹
3,B3,0.0034 s⁻¹
4,B4,0.00015 s⁻¹
5,B5,0.0017 s⁻¹
6,B6,0.00044 s⁻¹
7,B7,0.0012 s⁻¹
